Test: yeast display, Sf9 membrane polyspecificity reagent, FACS + sequencing; frameworks hold sequencing errors
Method in brief: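 Synthetic nanobody libraries on Saccharomyces cerevisiae BJ5465 were galactose-induced for 36–48 hours, stained 1 hour at 4 °C with 10% biotinylated, detergent-solubilized Sf9 membrane reagent and enriched on streptavidin microbeads. FACS then separated cells into low and high (top ~1%) gates by anti-HA (expression) and streptavidin (reagent binding) fluorescence. Genes were colony-PCR amplified, MiSeq 2 × 250 sequenced and CDR-length filtered. A clone's polyreactivity label is that of its gate of origin.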

Sequence	polyreactivity (PSR sort gate)
QVQLVESGGGLVQAGGSLRLSCAASGSIFPYNVMGWYRQAPGKERELVAAISTRGGRTYYADSVKGRVTISRDNAKNTVYLQMNSLKPEDTAVYDCATAGGPYSASGYYGGQGTQVTVSS	high polyreactivity
QVQLVESGGGLVQAGGSLRLRCAASGFIFNYYALGWYRQAPGKERELVAAINSGGNTYYADSVKGRFTISRDNAKNPVYIKMNTLKPEDTAVYYCNRDPESVGYDYWGQGTQVTVSS	low polyreactivity
QVQLVESGGRLVQAGGSLRVSCAASGSTFLFYAMVWYRQAPGKERELVATISRGGSTYYADSVKGRFTISRDNAKNTVYLQMNSQIPEDTAVYYCAARATRVTIAPRYGYWGQGTQVTVSS	low polyreactivity
QDQLVESGGGLVQAGRSLRLSCAASGSIYAFYAMGWYRQAPRKERELVAAISSRGGRTYYADSVKGRFTISRDNAKNTVYLQMNRLKPEETAVYYCAALYWRYLGYPVVRYYYWGQGTQVNVSS	high polyreactivity
QVQLVESGGGLVQAGGSLRLSCAASGSIFTVYGMGWYRQAPGKERELVAAITCTSGGTYYADSVKGRFTISRDNAKNTVYLQMNSLKPEDTAVYYCNADGGSGAYLDLTITDYDYWGQGTQVTVSS	low polyreactivity
QVQLVESGGGLVQAGGSLRLSCPASGSIFDYYAMGWYRQPPGKEREMVAAINISGGDTYYADSVKGRFTISRDNAKNTVYLQMNSLKPEDTAVYYCAADWVTWWFSRVGWDYGYWGQGTQVTVSS	low polyreactivity
QVQLVESGGGLVQAGGSLRLSCVASGRTFATYTLGWYRPAPGKERELVAAITTSGGTYYADSVKGRFTISRDNAKNTVYLQMNSLKPEDTAVYYCANVSYYTSAPWYYYWGQGTQVTVSS	high polyreactivity
QVQLVESGGGLVQAGGSLRLSCAASGFTIYRYAMGWYRQAPGKERELVATIRRGGSTKYADSVKGRFTISRDNAKNTVYLQMNSLKPEDTAVYYCNARYYAAPDKYYYWGQGTQVTVSS	low polyreactivity
QVQLVESGGGLVQAGGSLRLSCAASGFTFVWYVMGWYRQAPGKEREFVAAITSTGGNTNYADSVKGRFTISRDNAKNTVYLEMNSLKPEDTAVYYCAKRYGFPPGYYYWGQGTQVTVSS	low polyreactivity
QVQLVESGGGLVQAGGSLRLSCAASGRTFSVNVMGWYRQAPGKERELVAAISWSGGNTYYADSVKGRFTISRDNAKNTVYLQMNSLKPEDTAVYYCNTDFADSNYDSSYGYWGQGTQVTVSS	low polyreactivity
QVQLVESGGGLVQAGGSLRLSCAASGSTFDFYAMGLYRQAPGKERELVAAITSGGTTNYADSVKGRFTISRDNAKNTVYLQMNSLKPEDTAVYFCNAYYLGWYRVRAVTGYDYCGQGTQVTVSS	low polyreactivity
QVQLVESGGGLVQAGGSLRLTCAASGRIFNAYAMGWYRQAPGKEREFVAAISYTVGSTYYADTVKGRFTISRDNAKITVNLQMISLKPEDTAVYYCAATGWDYYGGYDYWGQGTQVTVSS	high polyreactivity
QVQLVESGGGLVQAGGSLRLSCAASGIIFEYYDRGWYRQAPGKERELVAAIDSGGSTYYADSVKGRFTISRDNAKNTVYLQMNSLKPEDTAVYYCAAETVRYDWGESPAALFDYWGQGTQVTVSS	low polyreactivity
QVQLVESGGGLVQAGGSLRLSCAASGSIFASYVMGWYRQAPGKERELVAAISSSGASTYYADSVKGRFTISRDNAKNTVSLQMNSLKPEDTAVSYCATPYYRSYLGDYWGQGTQVTVSS	high polyreactivity
QVQLVESGGGLVQAGGSLRLSCAASGFTFYTYAMGWYRPAPGKERELVATITIGDGSTYYADSVKGRFTISRDNAKNTVYLQMNSLKPEDTAVYYCNRDSVGYDYWGQGSQVTVSS	low polyreactivity
QVQLVESGGGLVQAGGSLRLSCAASGSTLSFNAMGWYRQAPGKERELVAGITYSGASTYYADSVKGRFTISRDNAKNTVYLQMNSLKPEDTAVYYCAADSPYQIYYYWGQGTQVTVSS	low polyreactivity
QVQLVESGGGLVQAGGSLRLSCAASGYIYYYYAMGWYRQAPVKERELVAAITFSGGSTYYADSVKGRFTISRDNAKNTVYLQMNSLKPEDTAVYYCAKVELRDSALLGSDEYDYLGQGTQVTVSS	low polyreactivity
QVQLVESGGGLVQAGGSLRLSCAASGNTFATYAMGWYRQAPGKERELVAAITWSGGSTYYADSVKGRFTISRDNAKNNVYLQMNSLKPEDTAVYYCAADYLYYAIPAYYWDTGYDYWGQGTQVTVSS	low polyreactivity
QVQLVESGGGLVQAGGSLGLSCAASGFTFRNYAMGCYRQAPGKERELVATLSASSGSTYYADSVKGRFTISRDNAKNTVYLQMNSLKPEDTAVYYCAAGLSGYSRKMYYWGQGTQVTESS	high polyreactivity
QVQLVESGGGLVQAGGSLRLSCAASGSTFGFYAMGWYRQAPGKERELVAAIDSGGSTYYADSVKGRFTISRDNAKNTVYLQMNSLKPEDTAVYYCAVRHRYTRAYWGRDYWGQGTQVTVSS	low polyreactivity
QVQLVESGGGLVQAGGSLRLSCAAYGITFPSYTMGWYRQAPGKERELVATIRNGGSTYYADSVKGRFTISRDNAKNTVYLQMNSLKPEDTAVYYCAAKDTGYGYGVPRLDYWGQGTQVTVSS	low polyreactivity
QVQLVESGGCLVQAGGSLRLSCAASGRTIRENVMGWYIQAPGKERELVAAITGNDGTTYYADSVKGRFTISRDNAKNTVNLQMNSLKPEDTAVYYCASERGDSAYRKYDYWGQGTQVTVSS	low polyreactivity

Sequence	polyreactivity (PSR sort gate)
QVQLVESGGGLVQAGGSLRLSCAASGFTFRWYTMGWYRQAPGKERELVAAISWSGTSTYYADSVKGRFTISRDNAKNTVYLQMNSLKPEDTAVYYCAAADFYYTGADDYWGQGTQVTVSS	high polyreactivity
QVQLVESGGGLVQAGGSLRLSCAASGITFSSYTMGGYRQAPGKERELVARINSGGTTNYADSVKGRFTISRDNAKNTVYLQMNSLKPEDTAVFYCAAEWVSWRWAHKFDYWGQGTQVTVSS	high polyreactivity
QVQLVESGGGLVQAGGSGRLSCAASGSIFFAYGMGWYRQATGTERELVAAIPNSGTSTYYADSVKGRFTISRDNAKNSDYLQMNSLKPEDTAVFYCARDNEPDYYSYPYDYWGEGTQVTVSS	low polyreactivity
QVQLVESGGGLVQAGGSLRLSCAASGIIFKQNVMGWYRQAPGKERELVAAITSRDGSTYYADSVKGRFTISRDNAKNTVYLQMNSLKPEDTAVYYCAAKWRSPRYYLYGYWGQGTQVTVSS	high polyreactivity
QVQLVESGGGLVQAGGSLRLSCAASGGTFYAYAMGSYRQAPGKERELVAAITNSGGSTYYADSVKGRFTISRDNAKNNVYLQMHSLKPEDTAVYYCARRRSYRDNYWGQGTQVTVSS	high polyreactivity
QVQLVESGGGLVQAGGSLRLSCAASGRTFCIYAMGWYIQAPGKEREFVAAISSSGGGTYYADSVKGRFTISRDNAKNTVYLQMNSLKPEDTAVYYCAADDGYSSNEYDYWGQGTQVTVSS	low polyreactivity
QVQLVESGVGLVQAGGSLRLSCAASGRIFFNNAMGWYIQAPGKERELVAGITSGSSTNYADSVKGRFTISRDNAKNTVYLQMNSLKPEDTAVYYCNAGDFERDVVVFIQHGGYYWGQGTQVTVSS	low polyreactivity
QVQLVESGGGLVQAGGSLRLSCAASGITFLDYAMGWYRQAPGQERELVAAISKRGGSTYYADSVKGRFTISRDKAKNTVYLQMNSLKPEDTAVYYCAAYYHSVRNDYFYYWGQGTQVTVSS	high polyreactivity
QVQLVESGGGLVQAGGSLRLSCAASGFTFSNNAMGRYRQAPGKEREFVAAISGTGGSTYYADSLKGRFTISRDNANNTVYLQMNSLKPEDTAVYYCARRRTYPPGRYYYWGQGTQETVSS	high polyreactivity
QVQLVESGGGLVQAGGSLRLSCAASGIIFRYNAMGWYRQAPGKERELVAAISTGGSTNYADSVKGRFTISRDNAKNTVYLQMNSLKPEDTAVYYCAADWHRAYGAYDYWGQGTQVTVSS	low polyreactivity
QVQLVESGGGLVNAGGSLRLSCAASGSIFKYNVMGWYRQAPGKEREMVAAITSRGTSTYYADSVKGRFTISRDNAKNTVYLQMNSLKPEDTAVYYCAADDNYYTFGYWGQGTQVTVSS	high polyreactivity
QVQLVESGGGLVQAGGSLRLSCAASGRTFGWYTMGWYRQAPGKEREFVAAISSSDTSTYYADSVKGRFTISRDNAKNTVYLQMNSLKPEDTAVYYCAADPPSWLWFVGYSYDYWGQGTQVTVTS	low polyreactivity
QVQLVESGGGLVQAGGSLRLSCAASGRTFRVYAIGWYRQAPGKERELVAAISGSGGSTYYADSVKGRFTISRDNAKNTVYLQMISLKPEDTAVYYCAKGSYRSYWYRAYDYWGQGTQVTVSS	low polyreactivity
QVQLVESGGGLVQAGGSLRLSCPASGSILYYYTMGWYRQAPGKERELVAAITYSGGSSYYADSVKGRFTISRDNAKNTVYLQMNSLKPEDTAVYYCAAAHSNRGVRKWEPLYFWGQRTQVTVSS	low polyreactivity
QVQLGESGGGLVQAGGSLRLSCAASGFIFFSNAMGWYRQAPGKERELVAAIRSGGSTNYADSVKGRFTISRDNAKNTVYLQMNSQKPEDTAVYYCNVLWLRSRRKYDYWGQGTQVTVSS	low polyreactivity
QVQLVESGGGLVQAGGSLRLSCAASGSIFYTYTMGWYRQAPGKERELVAAISTRGGSTYYADSVKGRFTISRDNAKNTFYLQMNSLKPEDTAVYYCAAGLQRYRMYYWGQGTQVTVSS	high polyreactivity
QVQLVESGGGLVQEGGSLRLSCAASGSIFVNNGMGWYRQAPGKERELVAAIRLSTGSTYYADSVKGRFTISRDNAKNTVYLQMNSLKPEDTAVYFCNAVRYPRLMYYWGQGTQVTVSS	high polyreactivity
QVQLVESGGGLVQAGGSLRLSCAASGRTFGSYAMGWYRQAPGKEREFVAGISYGGGRTYYADSVKGRFTISRDNAKNTVYLQMNSLKPEDTAVYYCAADGVYRYNYPYLYTYDYWGQGTQVTVSS	low polyreactivity
QVQLVESGGGLVQAGGSLRLSSAASGSILPYYAMGWYRQAPGKESELVATITSRGGSTYYADSVKGRFTISRDNAKNTVYLQMNSLKPEDTAVYYCAKEYRYYRRRYDYCGQGTQVTVSS	high polyreactivity
QVQLVESGGGLVQAGGRLRLSCAASGSTFSDYAMGWYRQAPGKERELVADISRSGASTYYADSVKGRFTISRYNAKNTVYLQMNSLKPEDTPVYSSNKAYSGVRYDSWGPGTQVTVSS	low polyreactivity
QDQLVESVGGVVQAGGSLRLSCAASGRIIRTYAMGWYRQAPGKERELVATISYSSGRTYYADSVKGRFTISRDNAKNTVYLQMNSLKPEDTAVYYCARRRRSGSRQYYYWGQGTQVTVSS	high polyreactivity

— the nanobody polyreactivity screen of Harvey et al. (2022)
